# In paper PMC5086636 (Toxins, 2016):
# Several values for one entry are separate records, joined by “and”; a condition that tells them apart may be missing. Equal values may be shown once.
# T1: Syt-II_(40-60) peptide (amino acid residues 40-60 of the mouse synaptotagmin protein) (mouse)
# T1 peptide: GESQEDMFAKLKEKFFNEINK
# Tests used:
# Synaptotagmin-II 8-61 = Synaptotagmin-II 8-61 (UniProt P29101); assay: ITC; details: cited from earlier work
# [1] = biological target: Synaptotagmin-II 40-60, P29101
# Chain of Synaptotagmin-II 40-60, P29101 (P29101 40-60): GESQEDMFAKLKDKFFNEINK
# [2] = biological target: T1, Syt-II_(40-60) peptide (amino acid …); assay: BLI; Octet Red; […]; 25 °C; PBS + 0.02% Tween 20, 1% BSA, 0.05% azide; […]; details: one partner purified
# Chain of Synaptotagmin-II 8-61 (P29101 8-61): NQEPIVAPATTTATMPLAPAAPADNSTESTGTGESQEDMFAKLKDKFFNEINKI
molecule,measurement,setting,value
BoNT/B 858-1291 (from UniProt P10844),Kd,Synaptotagmin-II 8-61,34 nM
"BoNT/B, P10844 (protein) PVTINNFNYNDPIDNNNIIMMEPPFARGTGRYYKAFKITDRIWIIPERYTFGYKPEDFNKSSGIFNRDVCEYYDPDYLNTNDKKNIFLQTMIKLFNRIKSKPLGEKLLEMIINGIPYLGDRRVPLEEFNTNIASVTVNKLISNPGEVERKKGIFANLIIFGPGPVLNENETIDIGIQNHFASREGFGGIMQMKFCPEYVSVFNNVQENKGASIFNRRGYFSDPALILMHELIHVLHGLYGIKVDDLPIVPNEKKFFMQSTDAIQAEELYTFGGQDPSIITPSTDKSIYDKVLQNFRGIVDRLNKVLVCISDPNININIYKNKFKDKYKFVEDSEGKYSIDVESFDKLYKSLMFGFTETNIAENYKIKTRASYFSDSLPPVKIKNLLDNEIYTIEEGFNISDKDMEKEYRGQNKAINKQAYEEISKEHLAVYKIQMCKSVKAPGICIDVDNEDLFFIADKNSFSDDLSKNERIEYNTQSNYIENDFPINELILDTDLISKIELPSENTESLTDFNVDVPVYEKQPAIKKIFTDENTIFQYLYSQTFPLDIRDISLTSSFDDALLFSNKVYSFFSMDYIKTANKVVEAGLFAGWVKQIVNDFVIEANKSNTMDKIADISLIVPYIGLALNVGNETAKGNFENAFEIAGASILLEFIPELLIPVVGAFLLESYIDNKNKIIKTIDNALTKRNEKWSDMYGLIVAQWLSTVNTQFYTIKEGMYKALNYQAQALEEIIKYRYNIYSEKEKSNINIDFNDINSKLNEGINQAIDNINNFINGCSVSYLMKKMIPLAVEKLLDFDNTLKKNLLNYIDENKLYLIGSAEYEKSKVNKYLKTIMPFDLSIYTNDTILIEMFNKYNSEILNNIILNLRYKDNNLIDLSGYGAKVEVYDGVELNDKNQFKLTSSANSKIRVTQNQNIIFNSVFLDFSVSFWIRIPKYKNDGIQNYIHNEYTIINCMKNNSGWKISIRGNRIIWTLIDINGKTKSVFFEYNIREDISEYINRWFFVTITNNLNNAKIYINGKLESNTDIKDIREVIANGEIIFKLDGDIDRTQFIWMKYFSIFNTELSQSNIEERYKIQSYSEYLKDFWGNPLMYNKEYYMFNAGNKNSYIKLKKDSPVGEILTRSKYNQNSKYINYRDLYIGEKFIIRRKSNSQSINDDIVRKEDYIYLDFFNLNQEWRVYTYKYFKKEEEKLFLAPISDSDEFYNTIQIKEYDEQPTYSCQLLFKKDEESTDEIGLIGIHRFYESGIVFEEYKDYFCISKWYLKEVKRKPYNLKLGCNWQFIPKDEGWTE",Kd,[1],20 nM and 90 nM
Botulinum neurotoxin type B (natural protein) MPVTINNFNYNDPIDNNNIIMMEPPFARGTGRYYKAFKITDRIWIIPERYTFGYKPEDFNKSSGIFNRDVCEYYDPDYLNTNDKKNIFLQTMIKLFNRIKSKPLGEKLLEMIINGIPYLGDRRVPLEEFNTNIASVTVNKLISNPGEVERKKGIFANLIIFGPGPVLNENETIDIGIQNHFASREGFGGIMQMKFCPEYVSVFNNVQENKGASIFNRRGYFSDPALILMHELIHVLHGLYGIKVDDLPIVPNEKKFFMQSTDAIQAEELYTFGGQDPSIITPSTDKSIYDKVLQNFRGIVDRLNKVLVCISDPNININIYKNKFKDKYKFVEDSEGKYSIDVESFDKLYKSLMFGFTETNIAENYKIKTRASYFSDSLPPVKIKNLLDNEIYTIEEGFNISDKDMEKEYRGQNKAINKQAYEEISKEHLAVYKIQMCKSVKAPGICIDVDNEDLFFIADKNSFSDDLSKNERIEYNTQSNYIENDFPINELILDTDLISKIELPSENTESLTDFNVDVPVYEKQPAIKKIFTDENTIFQYLYSQTFPLDIRDISLTSSFDDALLFSNKVYSFFSMDYIKTANKVVEAGLFAGWVKQIVNDFVIEANKSNTMDKIADISLIVPYIGLALNVGNETAKGNFENAFEIAGASILLEFIPELLIPVVGAFLLESYIDNKNKIIKTIDNALTKRNEKWSDMYGLIVAQWLSTVNTQFYTIKEGMYKALNYQAQALEEIIKYRYNIYSEKEKSNINIDFNDINSKLNEGINQAIDNINNFINGCSVSYLMKKMIPLAVEKLLDFDNTLKKNLLNYIDENKLYLIGSAEYEKSKVNKYLKTIMPFDLSIYTNDTILIEMFNKYNSEILNNIILNLRYKDNNLIDLSGYGAKVEVYDGVELNDKNQFKLTSSANSKIRVTQNQNIIFNSVFLDFSVSFWIRIPKYKNDGIQNYIHNEYTIINCMKNNSGWKISIRGNRIIWTLIDINGKTKSVFFEYNIREDISEYINRWFFVTITNNLNNAKIYINGKLESNTDIKDIREVIANGEIIFKLDGDIDRTQFIWMKYFSIFNTELSQSNIEERYKIQSYSEYLKDFWGNPLMYNKEYYMFNAGNKNSYIKLKKDSPVGEILTRSKYNQNSKYINYRDLYIGEKFIIRRKSNSQSINDDIVRKEDYIYLDFFNLNQEWRVYTYKYFKKEEEKLFLAPISDSDEFYNTIQIKEYDEQPTYSCQLLFKKDEESTDEIGLIGIHRFYESGIVFEEYKDYFCISKWYLKEVKRKPYNLKLGCNWQFIPKDEGWTE,"KD of the first, rapid step (2:1 heterogeneous ligand model)",[2],90 nM
same,"KD of the second, slow step (2:1 heterogeneous ligand model)",[2],20 nM
